Data: paper PMC2756588

Columns and labels:
Assay in all cases: SPOT array
Myo5, Q04439 = biological target: T1, Myo5, Q04439; details: median of control spots 471
T1 sequence (Q04439 1072-1160, looked up): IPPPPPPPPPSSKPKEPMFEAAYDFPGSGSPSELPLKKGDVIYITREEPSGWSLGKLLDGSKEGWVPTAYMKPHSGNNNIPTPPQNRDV

Sho1, P40073 = details: median of control spots 1148
Hof1, Q05080 = biological target: T2, Hof1, Q05080; details: median of control spots 4086
T2 sequence (Q05080 590-669, looked up): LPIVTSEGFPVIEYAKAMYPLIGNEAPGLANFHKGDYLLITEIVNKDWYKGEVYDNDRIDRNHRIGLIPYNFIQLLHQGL

Lsb4, P32793 = biological target: T3, Lsb4, P32793; details: median of control spots 397
T3 sequence (P32793 402-468, looked up): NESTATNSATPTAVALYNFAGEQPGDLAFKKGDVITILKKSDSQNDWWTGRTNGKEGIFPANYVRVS

Bzz1-1, P38822 = biological target: T4, Bzz1-1, P38822; details: median of control spots 4446
T4 sequence (P38822 478-572, looked up): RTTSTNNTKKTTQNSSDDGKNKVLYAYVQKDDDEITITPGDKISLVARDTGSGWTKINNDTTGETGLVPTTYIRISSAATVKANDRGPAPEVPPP

Fus1, P11710 = biological target: T5, Fus1, P11710; details: median of control spots 1200
T5 sequence (P11710 432-512, looked up): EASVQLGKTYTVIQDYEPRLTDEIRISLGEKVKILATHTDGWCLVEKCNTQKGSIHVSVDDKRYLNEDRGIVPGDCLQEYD

Cyk3, Q07533 = biological target: T6, Cyk3, Q07533; details: median of control spots 1451
T6 sequence (Q07533 1-83, looked up): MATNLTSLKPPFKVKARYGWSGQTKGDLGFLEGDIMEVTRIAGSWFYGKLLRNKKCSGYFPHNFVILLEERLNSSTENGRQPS

Boi1, P38041 = biological target: T7, Boi1, P38041; details: median of control spots 1162
T7 sequence (P38041 1-86, looked up): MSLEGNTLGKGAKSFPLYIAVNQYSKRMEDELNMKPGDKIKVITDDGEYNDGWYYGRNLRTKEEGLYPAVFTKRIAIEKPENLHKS

Pin3, Q06449 = biological target: T8, Pin3, Q06449; details: median of control spots 2171
T8 sequence (Q06449 53-122, looked up): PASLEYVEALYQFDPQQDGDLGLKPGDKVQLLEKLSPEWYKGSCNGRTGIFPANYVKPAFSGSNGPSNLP

Hse1, P38753 = biological target: T9, Hse1, P38753; details: median of control spots 1727
T9 sequence (P38753 208-285, looked up): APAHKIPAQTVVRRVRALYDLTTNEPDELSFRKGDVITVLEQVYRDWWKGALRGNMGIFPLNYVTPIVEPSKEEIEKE

Abp1, P15891 = biological target: T10, Abp1, P15891; details: median of control spots 935
T10 sequence (P15891 535-592, looked up): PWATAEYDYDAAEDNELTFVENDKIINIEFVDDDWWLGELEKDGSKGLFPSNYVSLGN

Bem1-1, P29366 = details: median of control spots 4282
Nbp2, Q12163 = biological target: T11, Nbp2, Q12163; details: median of control spots 357
T11 sequence (Q12163 103-180, looked up): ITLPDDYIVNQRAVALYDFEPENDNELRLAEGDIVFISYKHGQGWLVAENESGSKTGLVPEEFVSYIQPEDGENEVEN

Bzz1-2, P38822 = biological target: T12, Bzz1-2, P38822; details: median of control spots 4538
T12 sequence (P38822 568-633, looked up): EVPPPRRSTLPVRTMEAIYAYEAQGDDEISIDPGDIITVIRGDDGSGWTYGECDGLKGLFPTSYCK

Cdc25, P04821 = biological target: T13, Cdc25, P04821; details: median of control spots 969
T13 sequence (P04821 50-136, looked up): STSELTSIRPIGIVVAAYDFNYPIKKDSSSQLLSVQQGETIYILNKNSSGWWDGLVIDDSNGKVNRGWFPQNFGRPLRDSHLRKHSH

Rvs167, P39743 = details: median of control spots 2707
Lsb3, P43603 = biological target: T14, Lsb3, P43603; details: median of control spots 406
T14 sequence (P43603 385-451, looked up): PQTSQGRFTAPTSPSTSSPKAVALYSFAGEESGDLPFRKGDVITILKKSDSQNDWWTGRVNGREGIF

Sla1-3, P32790 = biological target: T15, Sla1-3, P32790; details: median of control spots 5475
T15 sequence (P32790 344-424, looked up): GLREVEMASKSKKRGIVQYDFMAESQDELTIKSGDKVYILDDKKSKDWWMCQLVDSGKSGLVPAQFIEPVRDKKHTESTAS

Pex13, P80667 = biological target: T16, Pex13, P80667; details: median of control spots 1341
T16 sequence (P80667 295-386, looked up): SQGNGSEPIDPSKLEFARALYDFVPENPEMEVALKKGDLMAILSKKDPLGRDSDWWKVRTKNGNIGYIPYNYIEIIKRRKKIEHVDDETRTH

Boi2, P39969 = biological target: T17, Boi2, P39969; details: median of control spots 1161
T17 sequence (P39969 32-116, looked up): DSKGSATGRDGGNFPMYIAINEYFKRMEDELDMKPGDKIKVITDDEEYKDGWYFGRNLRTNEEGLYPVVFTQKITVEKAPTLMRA

Myo3, P36006 = details: median of control spots 468
GST = details: median of control spots 978
Bem1-2, P29366 = details: median of control spots 4347
Bud14, P27637 = biological target: T18, Bud14, P27637; details: median of control spots 956
T18 sequence (P27637 247-328, looked up): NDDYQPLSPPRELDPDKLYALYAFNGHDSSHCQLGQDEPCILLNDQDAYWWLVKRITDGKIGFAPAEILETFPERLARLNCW

Bbc1, P47068 = biological target: T19, Bbc1, P47068; details: median of control spots 796
T19 sequence (P47068 1-78, looked up): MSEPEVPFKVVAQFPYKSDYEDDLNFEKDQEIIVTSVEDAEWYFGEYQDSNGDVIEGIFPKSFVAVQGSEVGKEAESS

Sla1-2, P32790 = biological target: T20, Sla1-2, P32790; details: median of control spots 712
T20 sequence (P32790 60-140, looked up): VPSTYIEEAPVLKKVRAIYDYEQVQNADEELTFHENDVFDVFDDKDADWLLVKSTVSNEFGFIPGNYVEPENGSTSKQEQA

Lsb1, P53281 = biological target: T21, Lsb1, P53281; details: median of control spots 388
T21 sequence (P53281 45-122, looked up): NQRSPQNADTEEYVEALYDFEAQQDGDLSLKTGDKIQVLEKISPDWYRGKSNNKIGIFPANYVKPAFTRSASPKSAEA

Chain of Sho1, P40073 (P40073 287-367): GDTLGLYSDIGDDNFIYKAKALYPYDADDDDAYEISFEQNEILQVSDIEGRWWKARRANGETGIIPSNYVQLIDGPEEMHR
Chain of Bem1-2, P29366 (P29366 139-227): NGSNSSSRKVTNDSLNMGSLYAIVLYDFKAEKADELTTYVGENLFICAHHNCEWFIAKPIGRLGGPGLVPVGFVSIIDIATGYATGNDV
Chain of Bem1-1, P29366 (P29366 55-141): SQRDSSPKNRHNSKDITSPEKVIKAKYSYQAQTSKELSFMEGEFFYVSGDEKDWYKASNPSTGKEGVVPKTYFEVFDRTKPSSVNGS
Chain of Rvs167, P39743 (P39743 419-482): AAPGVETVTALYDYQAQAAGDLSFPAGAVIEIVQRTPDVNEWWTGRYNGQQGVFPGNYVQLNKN

Row | Binder | SPOT intensity (Myo5, Q04439) | SPOT intensity (Sho1, P40073) | SPOT intensity (Hof1, Q05080) | SPOT intensity (Lsb4, P32793) | SPOT intensity (Bzz1-1, P38822) | SPOT intensity (Fus1, P11710) | SPOT intensity (Cyk3, Q07533) | SPOT intensity (Boi1, P38041) | SPOT intensity (Pin3, Q06449) | SPOT intensity (Hse1, P38753) | SPOT intensity (Abp1, P15891) | SPOT intensity (Bem1-1, P29366) | SPOT intensity (Nbp2, Q12163) | SPOT intensity (Bzz1-2, P38822) | SPOT intensity (Cdc25, P04821) | SPOT intensity (Rvs167, P39743) | SPOT intensity (Lsb3, P43603) | SPOT intensity (Sla1-3, P32790) | SPOT intensity (Pex13, P80667) | SPOT intensity (Boi2, P39969) | other results
1 | DFTLPPPPPPPGLDE | 306 | 0 | 6 | 0 | 0 | 0 | 0 | 0 | 0 | 0 | 0 | 0 | 3 | 0 | 0 | 0 | 0 | 0 | 0 | 0 | SPOT intensity (Myo3, P36006): 345; SPOT intensity (GST): 1; SPOT intensity (Bem1-2, P29366): 1; SPOT intensity (Bud14, P27637): 0; SPOT intensity (Bbc1, P47068): 0; SPOT intensity (Sla1-2, P32790): 0; SPOT intensity (Lsb1, P53281): 0
2 | DTFLPPPPPPPSNFE | 453 | 0 | 0 | 0 | 3 | 0 | 0 | 1 | 0 | 0 | 0 | 0 | 0 | 0 | 0 | 0 | 0 | 0 | 8 | 3 | SPOT intensity (Myo3, P36006): 518; SPOT intensity (GST): 0; SPOT intensity (Bem1-2, P29366): 0; SPOT intensity (Bud14, P27637): 0; SPOT intensity (Bbc1, P47068): 0; SPOT intensity (Sla1-2, P32790): 0; SPOT intensity (Lsb1, P53281): 0
3 | GKFIPSRPAPKPPSS | 593 | 22 | 0 | 56 | 2 | 0 | 2 | 3 | 12 | 0 | 231 | 1 | 2880 | 52 | 4 | 5 | 21 | 492 | 362 | 4 | SPOT intensity (Myo3, P36006): 553; SPOT intensity (GST): 0; SPOT intensity (Bem1-2, P29366): 14600; SPOT intensity (Bud14, P27637): 0; SPOT intensity (Bbc1, P47068): 138; SPOT intensity (Sla1-2, P32790): 0; SPOT intensity (Lsb1, P53281): 360
